Series [1] concerns the molecule itself. In words: 15N relaxation (rotational correlation time against concentration); 15N-XIAP-UBA at 0.16-1.9 mM; T1 and T2 at 298 K; non-linear fit of the rotational correlation time; dimer to monomers.
The target of series [2] is T1, human ubiquitin (mono-ubiquitin) (human, UniProt P0CG48 1-76).
T1 construct: ubiquitin, human, the mature 76-residue protein (C-terminal diglycine Gly75-Gly76); Used unlabelled or 15N-labelled
In words: NMR titration; 15N-labelled XIAP-UBA (0.5 mM, about 0.3 mM at the last point, predominantly monomeric) titrated with unlabelled monoUb (to molar ratio 5.5), K48-Ub2 or LL-Ub2 (to 2.5); 1H-15N HSQC chemical shift perturbation; 298 K; 20 mM BisTris-HCl pH 6.7, 150 mM NaCl, 5 mM DTT. As to conditions: both partners purified.

The target of series [3] is T2, linear-linked diubiquitin (UniProt P0CG48 1-76; P0CG48 1-76).
T2 construct: ubiquitin, mature 76-residue protein, first unit; its C-terminal Gly is joined to the N-terminal Met of the next unit; ubiquitin, mature 76-residue protein, second unit; Unlabelled; also called LL-Ub2; linear-linked Ub2
The description is as above. As to conditions: both partners purified.

B1: XIAP-UBA (UBA domain of X-linked inhibitor of apoptosis protein, residues 365-423) (domain or fragment, human, UniProt P98170 365-423, looked up)
chain: RIDDTIFQNPMVQEAIRMGFSFKDIKKIMEEKIQISGSNYKSLEVLVADLVNAQKDSMQ
notes: PDB 2KNA holds the longer construct 357-449; Used 15N- or 13C/15N-labelled or unlabelled; The tags are separated from XIAP-UBA by a thrombin site (LVPRG); also called XIAP UBA domain; XIAP-UBA WT; source: E. coli BL21 (DE3), purified
For B1, the values for the Kd in series [1], in series [2] and in series [3] were approximately 900 µM, 249 ± 19 µM and 59 ± 11 µM, respectively. For the same molecule, the “stoichiometry N” value in series [1] stood at 2.

(Values after article PMC3240630, “Structural Analysis of the UBA Domain of X-linked Inhibitor of Apoptosis Protein Reveals Different Surfaces for Ubiquitin-Binding and Self-Association” (PLoS ONE, 2011).)
